Measurements taken from IntAct's records for PubMed 17392788.

B1: "Lethal(2) giant larvae protein homolog SRO7" (Saccharomyces cerevisiae), Q12038 (parent)
chain: MFGSKRLKNVKEAFKSLKGQNSETPIENSKASFKSKNSKTSTISKDAKSSSSLKIPISSNNKNKIFSLAETNKYGMSSKPIAAAFDFTQNLLAIATVTGEVHIYGQQQVEVVIKLEDRSAIKEMRFVKGIYLVVINAKDTVYVLSLYSQKVLTTVFVPGKITSIDTDASLDWMLIGLQNGSMIVYDIDRDQLSSFKLDNLQKSSFFPAARLSPIVSIQWNPRDIGTVLISYEYVTLTYSLVENEIKQSFIYELPPFAPGGDFSEKTNEKRTPKVIQSLYHPNSLHIITIHEDNSLVFWDANSGHMIMARTVFETEINVPQPDYIRDSSTNAAKISKVYWMCENNPEYTSLLISHKSISRGDNQSLTMIDLGYTPRYSITSYEGMKNYYANPKQMKIFPLPTNVPIVNILPIPRQSPYFAGCHNPGLILLILGNGEIETMLYPSGIFTDKASLFPQNLSWLRPLATTSMAASVPNKLWLGALSAAQNKDYLLKGGVRTKRQKLPAEYGTAFITGHSNGSVRIYDASHGDIQDNASFEVNLSRTLNKAKELAVDKISFAAETLELAVSIETGDVVLFKYEVNQFYSVENRPESGDLEMNFRRFSLNNTNGVLVDVRDRAPTGVRQGFMPSTAVHANKGKTSAINNSNIGFVGIAYAAGSLMLIDRRGPAIIYMENIREISGAQSACVTCIEFVIMEYGDDGYSSILMVCGTDMGEVITYKILPASGGKFDVQLMDITNVTSKGPIHKIDAFSKETKSSCLATIPKMQNLSKGLCIPGIVLITGFDDIRLITLGKSKSTHKGFKYPLAATGLSYISTVEKNNDRKNLTVIITLEINGHLRVFTIPDFKEQMSEHIPFPIAAKYITESSVLRNGDIAIRVSEFQASLFSTVKEQDTLAPVSDTLYINGIRIPYRPQVNSLQWARGTVYCTPAQLNELLGGVNRPASKYKESIIAEGSFSERSSDDNNANHPEHQYTKPTRKGRNSSYGVLRNVSRAVETRWDAVEDRFNDYATAMGETMNEAVEQTGKDVMKGALGF

Variants of: B1
Details: with sec9_yeast SEC9, P40357
Chain of sec9_yeast SEC9, P40357 (P40357 whole entry): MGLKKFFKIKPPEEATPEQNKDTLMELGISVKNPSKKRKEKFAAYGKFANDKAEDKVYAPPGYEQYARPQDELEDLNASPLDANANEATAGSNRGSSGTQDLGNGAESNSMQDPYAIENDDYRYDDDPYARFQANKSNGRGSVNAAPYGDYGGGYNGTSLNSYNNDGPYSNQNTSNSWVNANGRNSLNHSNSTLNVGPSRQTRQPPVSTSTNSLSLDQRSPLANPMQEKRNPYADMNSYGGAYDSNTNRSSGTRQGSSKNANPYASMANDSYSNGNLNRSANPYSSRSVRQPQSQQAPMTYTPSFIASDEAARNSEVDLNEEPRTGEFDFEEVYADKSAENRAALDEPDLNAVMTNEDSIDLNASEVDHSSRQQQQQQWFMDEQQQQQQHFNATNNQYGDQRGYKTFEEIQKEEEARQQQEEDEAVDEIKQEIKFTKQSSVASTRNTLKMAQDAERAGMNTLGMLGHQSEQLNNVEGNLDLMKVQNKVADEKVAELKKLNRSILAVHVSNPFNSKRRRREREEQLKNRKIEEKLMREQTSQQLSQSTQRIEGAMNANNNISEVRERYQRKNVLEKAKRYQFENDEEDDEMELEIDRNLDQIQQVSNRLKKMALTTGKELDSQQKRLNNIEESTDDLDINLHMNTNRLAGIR

Variant	effect of a mutation on the interaction
E562A	decreasing interaction strength
R664A	decreasing interaction strength
M764A	decreasing interaction strength
Y700A	disrupting interaction strength
P721A	disrupting interaction strength
